Source: the Human Domainome abundance scans (Beltran et al. 2025)

B1: E3 ubiquitin-protein ligase TRIM36, residues 208 to 252; numbered along this chain, Q9NQ86 (parent)
chain: KILMCPEHETERINMYCELCRRPVCHLCKLGGNHANHRVTTMSSA
B2: Bromodomain adjacent to zinc finger domain protein 2B, residues 1927 to 1982; numbered along this chain, Q9UIF8 (parent)
chain: KSIMKVYCQICRKGDNEELLLLCDGCDKGCHTYCHRPKITTIPDGDWFCPACIAKA

Variants of: B1
Experiment: abundance fitness (aPCA) (normalised: wild type 0, dead -1); higher = more abundant; growth selection in yeast, the domain comes from the species named
Conditions: Homo sapiens

Abundance fitness: each site, then its substitutions
I2: C -0.345 | D 0.012 | F -0.001 | H -0.139 | Y -0.532 | V -0.157 | M -0.068 | E -0.042 | A -0.165 | R -0.243 | W -0.405 | L -0.083 | S -0.19 | G -0.115 | K -0.234 | N 0.011 | P -0.386 | T -0.097
C5: N -0.84 | M -1.02 | S -0.765 | K -0.688 | R -0.976 | V -0.907 | A -0.82 | Y -1 | P -1.06 | F -1.08 | W -1.41 | I -1.14 | G -0.744 | T -0.703 | E -0.655 | L -0.929 | D -0.536 | Q -0.996 | H -0.873
P6: A -0.072
L3: W -0.254 | V -0.037 | N -0.013 | I 0.061 | S -0.007 | Y -0.008 | R -0.114 | E 0.163 | G -0.016 | T 0.036 | P -0.128 | C -0.055 | F -0.04 | A -0.001 | K 0.006 | H -0.131 | M 0.092 | D 0.07
K1: Y -0.497 | H -0.283 | W -0.508 | S -0.396 | Q -0.236 | F -0.167 | A -0.25 | G -0.273 | R -0.28 | N -0.101 | V -0.243 | L -0.388 | I -0.291 | M -0.277 | T -0.157 | C -0.573
M4: R -0.165 | I -0.063 | V -0.077 | W -0.191 | D -0.189 | G -0.238 | L -0.187 | H -0.133 | Q -0.181 | S -0.203 | Y 0.031 | T -0.072 | K -0.054 | N -0.101 | P -0.288 | C -0.075 | E -0.173 | F 0.188

Variants of: B2
Experiment: as above
Conditions: Homo sapiens

Abundance fitness: each site, then its substitutions
D46: F -0.334 | Q 0.117 | H -0.122 | K 0.033 | T -0.094 | M -0.218 | E 0.028 | I -0.305 | G -0.031 | S -0.006 | L -0.233 | A -0.146 | W -0.582 | N -0.009 | V -0.046 | C -0.06 | Y -0.375 | P 0.058
C52: E -0.581 | A -0.661 | Y -0.666 | R -0.581 | L -0.891 | K -0.486 | M -0.487 | G -0.544 | Q -0.531 | H -0.392 | V -0.905 | N -0.523 | T -0.539 | D -0.43 | W -0.971 | S -0.652 | P -0.833 | F -0.736
D44: T -0.078 | K -0.235 | R -0.086 | A -0.11 | M -0.083 | S -0.031 | H -0.022 | Q -0.282 | G -0.017 | I -0.018 | E -0.206 | V -0.105 | P 0.048 | N 0.111 | W -0.205 | Y -0.222 | L -0.085
I42: G -0.048 | R -0.054 | S -0.065 | K 0.009 | E 0.069 | Q -0.201 | D -0.209 | P -0.043 | Y -0.093 | V -0.039 | F -0.007 | M 0.049 | L -0.015 | H -0.235 | A 0.042 | T 0.011
G45: W -0.728 | R 0.023 | C -0.235 | K -0.425 | M -0.371 | V -0.139 | D -0.068 | A -0.154 | S -0.005
P50: G -0.235 | A -0.074 | R 0.183 | L -0.71
K55: C -0.154 | G 0.058 | Q -0.171
T41: C -0.09 | Q -0.018 | S -0.091 | P 0.074 | H -0.041 | A -0.112 | K 0.085 | E 0.023 | V -0.057 | Y -0.217 | G 0.001 | M -0.108 | W -0.167 | R -0.048 | D -0.085 | L -0.187 | N -0.059
A54: C -0.095 | L 0.032 | W -0.229 | Q 0.066 | G -0.086 | N -0.136 | D -0.062 | T -0.031 | H -0.164 | K -0.036 | F -0.093 | S -0.082 | E 0.113 | M -0.309 | Y -0.102 | P 0.048 | R -0.211 | I -0.265 | V -0.053
A56: Q -0.176 | D -0.019 | S -0.317 | C -0.211 | G -0.364 | V 0.045 | M -0.28 | R 0.174 | T -0.155 | P -0.533 | W -0.331
C49: M -0.859 | I -0.859 | H -0.333 | R -0.822 | P -0.993 | G -0.788 | V -1.03 | Q -0.959 | A -0.82 | W -0.932 | D -0.244 | S -0.838 | L -1.04 | Y -1.11 | F -1.04 | K -0.83 | N -0.816
A51: G 0.033 | L -0.045 | E 0.028 | S -0.024 | M 0.022 | H -0.214 | W -0.175 | V -0.095 | F -0.385 | C -0.124 | K -0.162 | I -0.14 | N -0.064 | Y -0.346 | Q -0.169 | T 0.016 | R -0.087 | D 0.026
F48: A 0.021 | W -0.07 | G -0.06 | L -0.064 | S 0.037 | R 0 | T 0.008 | I 0.07 | E -0.028 | C 0.037 | H -0.029 | P -0.132 | N 0.192 | V 0.044 | K 0.085 | Q -0.04 | Y 0.039 | M -0.01
T40: V -0.056 | S -0.131 | W -0.082 | Y -0.11 | R -0.043
I53: F -0.072 | S -0.033 | V -0.004 | K -0.089 | C -0.051 | Y -0.026 | R -0.087 | T -0.225 | P 0.118 | E 0.016 | M 0.021 | N -0.242 | L 0.043 | W -0.179 | D -0.006 | A -0.037 | G -0.03 | H -0.083
W47: R -0.115 | G -0.289 | A -0.168 | C -0.287 | Y -0.165 | I -0.092 | V -0.338 | E -0.338 | N -0.186 | T -0.213 | P -0.165 | D -0.15 | F -0.345 | K -0.127 | H -0.169 | L -0.312 | Q -0.203
P43: E -0.041 | Q 0.024 | S 0.053 | T -0.003 | N -0.245 | L -0.163 | V -0.127 | R -0.083 | K -0.08 | H -0.217 | F -0.451 | A -0.006 | W -0.188 | M -0.269 | I 0.092 | G -0.016 | C -0.095 | Y -0.263 | D -0.071
